B1: GST-eIF5^W391F (natural protein)
chain: MSINICRDNHDPFYRYKMPPIQAKVEGRGNGIKTAVLNVADISHALNRPAPYIVKYFGFELGAQTSISVDKDRYLVNGVHEPAKLQDVLDGFINKFVLCGSCKNPETEIIITKDNDLVRDCKACGKRTPMDLRHKLSSFILKNPPDSVSGSKKKKKAATASANVRGGGLSISDIAQGKSQNAPSDGTGSSTPQHHDEDEDELSRQIKAAASTLEDIEVKDDEWAVDMSEEAIRARAKELEVNSELTQLDEYGEWILEQAGEDKENLPSDVELYKKAAELDVLNDPKIGCVLAQCLFDEDIVNEIAEHNAFFTKILVTPEYEKNFMGGIERFLGLEHKDLIPLLPKILVQLYNNDIISEEEIMRFGTKSSKKFVPKEVSKKVRRAAKPFITFLETAESDDDEEDDE
B2: GST-eIF5^CTD (domain or fragment)
chain: VNSELTQLDEYGEWILEQAGEDKENLPSDVELYKKAAELDVLNDPKIGCVLAQCLFDEDIVNEIAEHNAFFTKILVTPEYEKNFMGGIERFLGLEHKDLIPLLPKILVQLYNNDIISEEEIMRFGTKSSKKFVPKEVSKKVRRAAKPFITWLETAESDDDEEDDE
B3: GST-eIF5^LR+CTD (domain or fragment)
chain: KKKKAATASANVRGGGLSISDIAQGKSQNAPSDGTGSSTPQHHDEDEDELSRQIKAAASTLEDIEVKDDEWAVDMSEEAIRARAKELEVNSELTQLDEYGEWILEQAGEDKENLPSDVELYKKAAELDVLNDPKIGCVLAQCLFDEDIVNEIAEHNAFFTKILVTPEYEKNFMGGIERFLGLEHKDLIPLLPKILVQLYNNDIISEEEIMRFGTKSSKKFVPKEVSKKVRRAAKPFITWLETAESDDDEEDDE

target: Yeast eIF2αβγ complex, purified (his-tagged eIF2γ) (yeast, UniProt P20459;P09064;P32481); test: pull-down
Sequence (P20459 whole entry, chain 1 of 3): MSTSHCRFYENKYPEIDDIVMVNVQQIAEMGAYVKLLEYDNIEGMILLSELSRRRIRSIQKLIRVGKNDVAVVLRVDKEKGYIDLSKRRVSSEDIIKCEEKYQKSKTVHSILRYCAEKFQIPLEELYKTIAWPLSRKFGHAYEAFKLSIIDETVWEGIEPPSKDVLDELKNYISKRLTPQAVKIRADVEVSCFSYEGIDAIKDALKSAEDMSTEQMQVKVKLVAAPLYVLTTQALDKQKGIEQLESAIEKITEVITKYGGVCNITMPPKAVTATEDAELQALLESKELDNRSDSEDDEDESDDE
Sequence (P09064 whole entry, chain 2 of 3): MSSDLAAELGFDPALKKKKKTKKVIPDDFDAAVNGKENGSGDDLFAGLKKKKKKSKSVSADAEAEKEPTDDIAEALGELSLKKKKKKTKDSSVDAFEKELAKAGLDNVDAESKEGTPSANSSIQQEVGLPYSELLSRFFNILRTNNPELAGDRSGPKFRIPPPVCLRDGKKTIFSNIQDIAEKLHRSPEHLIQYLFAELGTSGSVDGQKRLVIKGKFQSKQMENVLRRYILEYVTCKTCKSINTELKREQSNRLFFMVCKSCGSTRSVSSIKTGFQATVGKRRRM
Sequence (P32481 whole entry, chain 3 of 3): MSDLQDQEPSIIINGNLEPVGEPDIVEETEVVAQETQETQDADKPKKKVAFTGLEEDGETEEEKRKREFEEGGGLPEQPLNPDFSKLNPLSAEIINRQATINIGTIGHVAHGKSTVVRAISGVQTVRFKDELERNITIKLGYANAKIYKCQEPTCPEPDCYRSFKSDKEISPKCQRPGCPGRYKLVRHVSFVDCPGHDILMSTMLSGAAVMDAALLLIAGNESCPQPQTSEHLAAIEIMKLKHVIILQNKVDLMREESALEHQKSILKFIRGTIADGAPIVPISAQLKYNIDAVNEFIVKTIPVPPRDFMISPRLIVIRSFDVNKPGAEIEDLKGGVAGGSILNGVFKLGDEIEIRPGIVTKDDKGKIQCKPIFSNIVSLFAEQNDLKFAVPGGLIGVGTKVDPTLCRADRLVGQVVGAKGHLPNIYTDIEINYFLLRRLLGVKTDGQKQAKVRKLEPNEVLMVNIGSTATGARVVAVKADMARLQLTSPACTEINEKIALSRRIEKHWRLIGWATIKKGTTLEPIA

Binding result, binds:
B1
B2
B3

Source: publication PMC2875157 (Nature, 2010)
